Experiment [1] concerns the target stabilized microtubules polymerized from cow brain tubulin (cow) (UniProt Q6B856). Kind of experiment: TIRF microscopy of microtubule end decoration.
Experiment [2] deals with human full-length GFP-CLASP2α (human) (UniProt O75122). Kind of experiment: TIRF microscopy of microtubules on DNA origami-clustered protein.

Take “human full-length GFP-CLASP2α (from UniProt O75122-3 1-1515) (natural protein)”: the end brightness in experiment [1] was 594 a.u.

Turning to “stabilized microtubules polymerized from cow brain tubulin (from UniProt Q6B856 1-445) (complex)”, the time for which half of the microtubules keep end association in experiment [2] worked out at 4 h.

B1: GFP-L-TOG2-S (domain or fragment)
chain: KVPAPKTSGNPANSARKPGSAGGPKVGAGASKEGGAGAVDEDDFIKAFTDVPSIQIYSSRELEETLNKIREILSDDKHDWDQRANALKKIRSLLVAGAAQYDCFFQHLRLLDGALKLSAKDLRSQVVREACITVAHLSTVLGNKFDHGAEAIVPTLFNLVPNSAKVMATSGCAAIRFIIRHTHVPRLIPLITSNCTSKSVPVRRRSFEFLDLLLQEWQTHSLERHAAVLVETIKKGIHDADAEARVEARKTYMGLRNHFPGEAETLYNSLEPSYQKSLQTYLKSSGSVASLPQSDRSSSSSQESLNRPFSSKWSTANPSTVAGRVSAGSSKASSLPGSLQRSRSDIDVNAAAGAKAHHAAGQSVRSGRLGAGALNAGSYASLEDTSDKLDGTASEDGRVRAKLSAPLAGMGNAKADSRGRSRTKMVSQSQPGSRSGSPGRVLTTTALSTVSSGVQRVLVNSASAQKRSKIPRSQGCSREASPSRLSVARSSRIPRPSVSQGCSREASRESSRDTSPVRSFQPLGPGYGISQSS
In experiment [1], B1 displayed an end brightness of 757 a.u.

The values above are taken from PMC9812398.
